Measurements reported in paper PMC5343618.
Several values for one entry are separate records, joined by “and”; a condition that tells them apart may be missing. Identical values can stand only once. Blank lines part the entries; values can stand above or below the substance they belong to.

Key:
[1] = molecular target: D-psicose 3-epimerase from Ruminococcus sp. 5_1_39BFAA (RDPE) (Ruminococcus sp. 5_1_39BFAA); test: native gel or EMSA; soluble protein fractions combined with SDS at 0, 0.5%, 1% and 2% and run on a 10% acrylamide native gel
[2] = molecular target: D-psicose 3-epimerase from Ruminococcus sp. 5_1_39BFAA (RDPE) (Ruminococcus sp. 5_1_39BFAA); test: native gel or EMSA; blue native PAGE (BN-PAGE) of the soluble cytoplasmic fraction and the culture supernatant of B. subtilis after 24 h of cultivation; non-reducing sample buffer, Coomassie blue; mass estimated within ±15%
[3] = molecular target: RDPE derivative with a C-terminal 6-His tag (RDPE-H) (Ruminococcus sp. 5_1_39BFAA); test: cross-linking; in vivo cross-linking of B. subtilis cells with 0.5 mM DSS in PBS pH 8.3, 20 min at 37 °C; cells recovered 1 h in fresh medium; 10% SDS-PAGE with β-mercaptoethanol and anti-His immunoblot of cell and supernatant fractions
[4] = molecular target: RDPE truncated by a single amino acid from the N-terminus (ΔN1) (Ruminococcus sp. 5_1_39BFAA); test: native gel or EMSA; blue native PAGE (BN-PAGE) of the soluble cytoplasmic fraction and the culture supernatant of B. subtilis after 24 h of cultivation; non-reducing sample buffer, Coomassie blue; mass estimated within ±15%
[5] = molecular target: RDPE variant 100A (Leu100 to alanine) (Ruminococcus sp. 5_1_39BFAA); test: as above
[6] = molecular target: RDPE variant D102A (Ruminococcus sp. 5_1_39BFAA); test: as above
[7] = molecular target: RDPE variant G107A (Ruminococcus sp. 5_1_39BFAA); test: as above
[8] = molecular target: RDPE variant G181A (Ruminococcus sp. 5_1_39BFAA); test: as above
[9] = molecular target: RDPE variant I103A (Ruminococcus sp. 5_1_39BFAA); test: as above
[10] = molecular target: RDPE variant L184A (Ruminococcus sp. 5_1_39BFAA); test: as above
[11] = molecular target: RDPE variant V106A (Ruminococcus sp. 5_1_39BFAA); test: as above
[12] = molecular target: RDPE variant V175A (Ruminococcus sp. 5_1_39BFAA); test: as above
[13] = molecular target: RDPE variant V180A (Ruminococcus sp. 5_1_39BFAA); test: as above
[14] = molecular target: RDPE variant V182A (Ruminococcus sp. 5_1_39BFAA); test: as above
[15] = molecular target: full-length RDPE fused to mCherry (RDPE-mCh) (Ruminococcus sp. 5_1_39BFAA); test: as above

Substance: D-psicose 3-epimerase from Ruminococcus sp. 5_1_39BFAA (RDPE) (enzyme)
- stoichiometry N [1]: 3 and 2
- stoichiometry N [2]: 4

Substance: RDPE derivative with a C-terminal 6-His tag (RDPE-H) (enzyme)
- stoichiometry N [3]: 4

Substance: RDPE truncated by a single amino acid from the N-terminus (ΔN1) (enzyme)
- stoichiometry N [4]: 4

Substance: RDPE variant 100A (Leu100 to alanine) (enzyme)
- stoichiometry N [5]: 4

Substance: RDPE variant D102A (enzyme)
- stoichiometry N [6]: 4

Substance: RDPE variant V175A (enzyme)
- stoichiometry N [12]: 4

Substance: RDPE variant V180A (enzyme)
- stoichiometry N [13]: 4

Substance: full-length RDPE fused to mCherry (RDPE-mCh) (enzyme)
- stoichiometry N [15]: 4

More lines, now with the values ahead:

- stoichiometry N [7]: 4
Substance: RDPE variant G107A (enzyme)

- stoichiometry N [8]: 4
Substance: RDPE variant G181A (enzyme)

- stoichiometry N [9]: 4
Substance: RDPE variant I103A (enzyme)

- stoichiometry N [10]: 4
Substance: RDPE variant L184A (enzyme)

- stoichiometry N [11]: 4
Substance: RDPE variant V106A (enzyme)

- stoichiometry N [14]: 4
Substance: RDPE variant V182A (enzyme)
